Holding throughout (experiment): SPR
Test [1] addresses 7D11.
Test [2] deals with T1, recombinant MPXV [change] protein (ectodomain, His-tagged) (mpox virus (MPXV), isolate …).
In test [3] the target is T1, recombinant MPXV [change] protein …. The source holds these as a separate data set.

As a reminder, the Kd is the free concentration of one partner at which half of the binding sites on the other are occupied at equilibrium, for simple one-to-one binding.

Read-outs that look alike come from different tables or passages of the source.

B1: recombinant MPXV [change] protein (ectodomain, His-tagged) (domain or fragment)
chain: MGAAASIQTTVNTLSERISSKLEQEANASAQTKCDIEIGNFYIRQNHGCNITVKNMCSADADAQLDAVLSAATETYSGLTPEQKAYVPAMFTAALNIQTSVNTVVRDFENYVKQTCNSSAVVDNKLKIQNVIIDECYGAPGSPTNLEFINTGSSKGNCAIKALMQLTTKATTQIAPRQVAG
Regarding B1, in test [1], the equilibrium dissociation constant (Kd) was 0.0198 nM.

B2: nanobody M1R-01 (monovalent) (VHH)
VHH: QVQLVESGGGLVQAGGSLRLSCAASGFIFHNFDMGWYRQAPGKEREFVAAISDNGRSTYYADSVKGRFTISRDNAKNTVYLQMNSLKPEDTAVYYCAVAWLSIPDLAEWYDYWGQGTQVTVSS
B2: the dissociation constant Kd in test [2] amounted to 40 nM; in test [3], 40.4 nM.

These data come from paper PMC11937253 (2025).
